# *1 amine or outer side, *2 acyl side, *3 side chain or, on linkers, in order; H or OH if unused. Bridges are numbered along the chain shown (N, C = ends). Side-chain parts run from the residue outwards. [ ]: non-standard residue; d: D form. The star is where a group is joined. γGlu = O=C(O)[C@H](CCC(=O)[*:2])N[*:1]; Palmitoyl = CCCCCCCCCCCCCCCC(=O)*; Octanoyl = CCCCCCCC(=O)*; Dap = NC[C@H](N)C(=O)O; Octyl = CCCCCCCC*
# Target: human growth hormone secretagogue receptor type 1a (human, UniProt Q92847 1-366)
# Sequence (Q92847 whole entry): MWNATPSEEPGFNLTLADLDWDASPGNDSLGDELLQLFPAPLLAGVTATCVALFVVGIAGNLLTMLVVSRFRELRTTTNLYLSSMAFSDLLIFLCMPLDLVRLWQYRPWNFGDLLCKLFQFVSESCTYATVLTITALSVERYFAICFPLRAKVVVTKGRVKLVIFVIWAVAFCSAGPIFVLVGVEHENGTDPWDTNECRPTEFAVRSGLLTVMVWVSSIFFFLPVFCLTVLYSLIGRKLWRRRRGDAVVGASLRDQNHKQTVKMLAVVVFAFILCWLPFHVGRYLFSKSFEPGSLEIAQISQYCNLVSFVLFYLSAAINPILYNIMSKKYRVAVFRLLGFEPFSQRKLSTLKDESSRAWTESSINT
# Test: cell-based or functional assay
row,EC50 (nM); Ca2+ induction in HEK293 cells stably expressing the human ghrelin receptor [nM],Binder
1,0.195,H-PS[Dap](Octanoyl)FLSPY-NH2 (SMILES CCCCCCCC(=O)NC[C@H](NC(=O)[C@H](CO)NC(=O)[C@@H]1CCCN1)C(=O)N[C@@H](Cc1ccccc1)C(=O)N[C@@H](CC(C)C)C(=O)N[C@@H](CO)C(=O)N1CCC[C@H]1C(=O)N[C@@H](Cc1ccc(O)cc1)C(N)=O) [H-PS-Dap(N-octanoyl)-FLSPY-NH2]
2,0.432,H-PS[NH‑CH(n-C10H21)‑C(O)]FLSPK-NH2 [H-PS-[NH-CH(n-C10H21)-C(O)]-FLSPK-NH2]
3,0.253,H-PS[Dap](Octanoyl)FLSPEHQRVQRKESKKPPAKLQPR-NH2 [H-PS-Dap(N-octanoyl)-FLSPEHQRVQRKESKKPPAKLQPR-NH2]
4,1.29,H-GSS(Octanoyl)FLSPEHQRVQQRKESKEPPAKLQPR-OH (lactam 16-20; SMILES CCCCCCCC(=O)OC[C@H](NC(=O)[C@H](CO)NC(=O)CN)C(=O)N[C@@H](Cc1ccccc1)C(=O)N[C@@H](CC(C)C)C(=O)N[C@@H](CO)C(=O)N1CCC[C@H]1C(=O)N[C@@H](CCC(=O)O)C(=O)N[C@@H](Cc1c[nH]cn1)C(=O)N[C@@H](CCC(N)=O)C(=O)N[C@@H](CCCNC(=N)N)C(=O)N[C@H](C(=O)N[C@@H](CCC(N)=O)C(=O)N[C@@H](CCC(N)=O)C(=O)N[C@@H](CCCNC(=N)N)C(=O)N[C@H]1CCCCNC(=O)CC[C@@H](C(=O)N2CCC[C@H]2C(=O)N2CCC[C@H]2C(=O)N[C@@H](C)C(=O)N[C@@H](CCCCN)C(=O)N[C@@H](CC(C)C)C(=O)N[C@@H](CCC(N)=O)C(=O)N2CCC[C@H]2C(=O)N[C@@H](CCCNC(=N)N)C(=O)O)NC(=O)[C@H](CCCCN)NC(=O)[C@H](CO)NC(=O)[C@H](CCC(=O)O)NC1=O)C(C)C) [H-GS-S(octanoyl)-FLSPEHQRVQQRK()ESKE()PPAKLQPR-OH]
5,0.33,H-PSS(Octyl)FLSPEHQRVQRKESKKPPAKLQPR-NH2 (SMILES CCCCCCCCOC[C@H](NC(=O)[C@H](CO)NC(=O)[C@@H]1CCCN1)C(=O)N[C@@H](Cc1ccccc1)C(=O)N[C@@H](CC(C)C)C(=O)N[C@@H](CO)C(=O)N1CCC[C@H]1C(=O)N[C@@H](CCC(=O)O)C(=O)N[C@@H](Cc1c[nH]cn1)C(=O)N[C@@H](CCC(N)=O)C(=O)N[C@@H](CCCNC(=N)N)C(=O)N[C@H](C(=O)N[C@@H](CCC(N)=O)C(=O)N[C@@H](CCCNC(=N)N)C(=O)N[C@@H](CCCCN)C(=O)N[C@@H](CCC(=O)O)C(=O)N[C@@H](CO)C(=O)N[C@@H](CCCCN)C(=O)N[C@@H](CCCCN)C(=O)N1CCC[C@H]1C(=O)N1CCC[C@H]1C(=O)N[C@@H](C)C(=O)N[C@@H](CCCCN)C(=O)N[C@@H](CC(C)C)C(=O)N[C@@H](CCC(N)=O)C(=O)N1CCC[C@H]1C(=O)N[C@@H](CCCNC(=N)N)C(N)=O)C(C)C) [H-PS-S(O-octyl)-FLSPEHQRVQRKESKKPPAKLQPR-NH2]
6,0.388,H-PSS(Octyl)FLSPK-NH2 (SMILES CCCCCCCCOC[C@H](NC(=O)[C@H](CO)NC(=O)[C@@H]1CCCN1)C(=O)N[C@@H](Cc1ccccc1)C(=O)N[C@@H](CC(C)C)C(=O)N[C@@H](CO)C(=O)N1CCC[C@H]1C(=O)N[C@@H](CCCCN)C(N)=O) [H-PS-S(O-octyl)-FLSPK-NH2]

# More lines, now with the values behind:
row,Binder,EC50 (nM); Ca2+ induction in HEK293 cells stably expressing the human ghrelin receptor [nM]
1,"RSFLSPEHQRVQQRKESKKPPAKLQPR (N-terminal Ac-Orn (acetylated ornithine, stands for X1 and X2 together); next residue Ser(O-octyl) (position 3 of the formula); C-terminal amide (-NH2)) [Ac-Orn-S(O-octyl)-FLSPEHQRVQQRKESKKPPAKLQPR-NH2]",1.4
2,H-PSS(Octyl)FLSPEHQRKQQRKESKKPPAKLQPR-NH2 (lactam 8-12; SMILES CCCCCCCCOC[C@H](NC(=O)[C@H](CO)NC(=O)[C@@H]1CCCN1)C(=O)N[C@@H](Cc1ccccc1)C(=O)N[C@@H](CC(C)C)C(=O)N[C@@H](CO)C(=O)N1CCC[C@H]1C(=O)N[C@H]1CCC(=O)NCCCC[C@@H](C(=O)N[C@@H](CCC(N)=O)C(=O)N[C@@H](CCC(N)=O)C(=O)N[C@@H](CCCNC(=N)N)C(=O)N[C@@H](CCCCN)C(=O)N[C@@H](CCC(=O)O)C(=O)N[C@@H](CO)C(=O)N[C@@H](CCCCN)C(=O)N[C@@H](CCCCN)C(=O)N2CCC[C@H]2C(=O)N2CCC[C@H]2C(=O)N[C@@H](C)C(=O)N[C@@H](CCCCN)C(=O)N[C@@H](CC(C)C)C(=O)N[C@@H](CCC(N)=O)C(=O)N2CCC[C@H]2C(=O)N[C@@H](CCCNC(=N)N)C(N)=O)NC(=O)[C@H](CCCNC(=N)N)NC(=O)[C@H](CCC(N)=O)NC(=O)[C@H](Cc2c[nH]cn2)NC1=O) [H-PS-S(O-octyl)-FLSPE()HQRK()QQRKESKKPPAKLQPR-NH2],0.365
3,H-PSS(Octyl)FLSPEHQRVQQRKESK([γGlu-Palmitoyl])KPPAKLQPR-NH2 (SMILES CCCCCCCCCCCCCCCC(=O)N[C@@H](CCC(=O)NCCCC[C@H](NC(=O)[C@H](CO)NC(=O)[C@H](CCC(=O)O)NC(=O)[C@H](CCCCN)NC(=O)[C@H](CCCNC(=N)N)NC(=O)[C@H](CCC(N)=O)NC(=O)[C@H](CCC(N)=O)NC(=O)[C@@H](NC(=O)[C@H](CCCNC(=N)N)NC(=O)[C@H](CCC(N)=O)NC(=O)[C@H](Cc1c[nH]cn1)NC(=O)[C@H](CCC(=O)O)NC(=O)[C@@H]1CCCN1C(=O)[C@H](CO)NC(=O)[C@H](CC(C)C)NC(=O)[C@H](Cc1ccccc1)NC(=O)[C@H](COCCCCCCCC)NC(=O)[C@H](CO)NC(=O)[C@@H]1CCCN1)C(C)C)C(=O)N[C@@H](CCCCN)C(=O)N1CCC[C@H]1C(=O)N1CCC[C@H]1C(=O)N[C@@H](C)C(=O)N[C@@H](CCCCN)C(=O)N[C@@H](CC(C)C)C(=O)N[C@@H](CCC(N)=O)C(=O)N1CCC[C@H]1C(=O)N[C@@H](CCCNC(=N)N)C(N)=O)C(=O)O) [H-PS-S(O-octyl)-FLSPEHQRVQQRKES-K(hexadecanoyl-isoGlu)-KPPAKLQPR-NH2],0.496
4,"RSFLSPEHQRVQQRKESKKPPAKLQPR (N-terminal Orn (ornithine, stands for X1 and X2 together); next residue Ser(O-octyl) (position 3 of the formula); C-terminal amide (-NH2)) [H-Orn-S(O-octyl)-FLSPEHQRVQQRKESKKPPAKLQPR-NH2]",0.527
5,H-PSS(Octyl)FLSPEHERVQKRKESKKPPAKLQPR-NH2 (lactam 10-14; SMILES CCCCCCCCOC[C@H](NC(=O)[C@H](CO)NC(=O)[C@@H]1CCCN1)C(=O)N[C@@H](Cc1ccccc1)C(=O)N[C@@H](CC(C)C)C(=O)N[C@@H](CO)C(=O)N1CCC[C@H]1C(=O)N[C@@H](CCC(=O)O)C(=O)N[C@@H](Cc1c[nH]cn1)C(=O)N[C@H]1CCC(=O)NCCCC[C@@H](C(=O)N[C@@H](CCCNC(=N)N)C(=O)N[C@@H](CCCCN)C(=O)N[C@@H](CCC(=O)O)C(=O)N[C@@H](CO)C(=O)N[C@@H](CCCCN)C(=O)N[C@@H](CCCCN)C(=O)N2CCC[C@H]2C(=O)N2CCC[C@H]2C(=O)N[C@@H](C)C(=O)N[C@@H](CCCCN)C(=O)N[C@@H](CC(C)C)C(=O)N[C@@H](CCC(N)=O)C(=O)N2CCC[C@H]2C(=O)N[C@@H](CCCNC(=N)N)C(N)=O)NC(=O)[C@H](CCC(N)=O)NC(=O)[C@H](C(C)C)NC(=O)[C@H](CCCNC(=N)N)NC1=O) [H-PS-S(O-octyl)-FLSPEHE()RVQK()RKESKKPPAKLQPR-NH2],0.155
6,H-GSS(Octanoyl)FLSPEHERVQKRKESKKPPAKLQPR-OH (lactam 10-14; SMILES CCCCCCCC(=O)OC[C@H](NC(=O)[C@H](CO)NC(=O)CN)C(=O)N[C@@H](Cc1ccccc1)C(=O)N[C@@H](CC(C)C)C(=O)N[C@@H](CO)C(=O)N1CCC[C@H]1C(=O)N[C@@H](CCC(=O)O)C(=O)N[C@@H](Cc1c[nH]cn1)C(=O)N[C@H]1CCC(=O)NCCCC[C@@H](C(=O)N[C@@H](CCCNC(=N)N)C(=O)N[C@@H](CCCCN)C(=O)N[C@@H](CCC(=O)O)C(=O)N[C@@H](CO)C(=O)N[C@@H](CCCCN)C(=O)N[C@@H](CCCCN)C(=O)N2CCC[C@H]2C(=O)N2CCC[C@H]2C(=O)N[C@@H](C)C(=O)N[C@@H](CCCCN)C(=O)N[C@@H](CC(C)C)C(=O)N[C@@H](CCC(N)=O)C(=O)N2CCC[C@H]2C(=O)N[C@@H](CCCNC(=N)N)C(=O)O)NC(=O)[C@H](CCC(N)=O)NC(=O)[C@H](C(C)C)NC(=O)[C@H](CCCNC(=N)N)NC1=O) [H-GS-S(octanoyl)-FLSPEHE()RVQK()RKESKKPPAKLQPR-OH],0.597
7,H-GSS(Octanoyl)FLSPEHQRKQQRKESKKPPAKLQPR-OH (lactam 8-12; SMILES CCCCCCCC(=O)OC[C@H](NC(=O)[C@H](CO)NC(=O)CN)C(=O)N[C@@H](Cc1ccccc1)C(=O)N[C@@H](CC(C)C)C(=O)N[C@@H](CO)C(=O)N1CCC[C@H]1C(=O)N[C@H]1CCC(=O)NCCCC[C@@H](C(=O)N[C@@H](CCC(N)=O)C(=O)N[C@@H](CCC(N)=O)C(=O)N[C@@H](CCCNC(=N)N)C(=O)N[C@@H](CCCCN)C(=O)N[C@@H](CCC(=O)O)C(=O)N[C@@H](CO)C(=O)N[C@@H](CCCCN)C(=O)N[C@@H](CCCCN)C(=O)N2CCC[C@H]2C(=O)N2CCC[C@H]2C(=O)N[C@@H](C)C(=O)N[C@@H](CCCCN)C(=O)N[C@@H](CC(C)C)C(=O)N[C@@H](CCC(N)=O)C(=O)N2CCC[C@H]2C(=O)N[C@@H](CCCNC(=N)N)C(=O)O)NC(=O)[C@H](CCCNC(=N)N)NC(=O)[C@H](CCC(N)=O)NC(=O)[C@H](Cc2c[nH]cn2)NC1=O) [H-GS-S(octanoyl)-FLSPE()HQRK()QQRKESKKPPAKLQPR-OH],0.534
8,H-GSSFLSPEHQKAQQRKESKKPPAKLQPR-OH [rat ghrelin without octanoyl moiety at position 3],> 1000
9,H-PS[Dap](Octanoyl)FLSPK-NH2 (SMILES CCCCCCCC(=O)NC[C@H](NC(=O)[C@H](CO)NC(=O)[C@@H]1CCCN1)C(=O)N[C@@H](Cc1ccccc1)C(=O)N[C@@H](CC(C)C)C(=O)N[C@@H](CO)C(=O)N1CCC[C@H]1C(=O)N[C@@H](CCCCN)C(N)=O) [H-PS-Dap(N-octanoyl)-FLSPK-NH2],0.364

# Source: patent US9657062B2, “Ghrelin analogues” (Zealand Pharma A/S, priority 2012, dated 2017)
